Test results reported in publication PMC4452343, “Monitoring β-arrestin recruitment via β-lactamase enzyme fragment complementation: purification of peptide E as a low-affinity ligand for mammalian bombesin receptors” (PLoS ONE, 2015).

Legend:
[1] = target: human bombesin receptor subtype 3 (human) (UniProt P32247)
[2] = target: neuromedin B receptor (human) (UniProt P28336)
Sequence of neuromedin B receptor (human) (P28336 whole entry): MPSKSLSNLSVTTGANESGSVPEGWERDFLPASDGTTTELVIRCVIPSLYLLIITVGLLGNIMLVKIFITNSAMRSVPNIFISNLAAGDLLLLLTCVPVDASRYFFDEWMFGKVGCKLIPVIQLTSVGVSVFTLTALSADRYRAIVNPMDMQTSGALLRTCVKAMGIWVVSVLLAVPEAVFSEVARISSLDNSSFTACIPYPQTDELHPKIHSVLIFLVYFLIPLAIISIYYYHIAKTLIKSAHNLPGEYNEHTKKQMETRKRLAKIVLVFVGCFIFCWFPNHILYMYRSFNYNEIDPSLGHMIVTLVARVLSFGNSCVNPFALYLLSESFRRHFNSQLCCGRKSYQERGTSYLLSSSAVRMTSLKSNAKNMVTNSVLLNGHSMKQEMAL

Sequence of human bombesin receptor subtype 3 (human) (P32247 whole entry): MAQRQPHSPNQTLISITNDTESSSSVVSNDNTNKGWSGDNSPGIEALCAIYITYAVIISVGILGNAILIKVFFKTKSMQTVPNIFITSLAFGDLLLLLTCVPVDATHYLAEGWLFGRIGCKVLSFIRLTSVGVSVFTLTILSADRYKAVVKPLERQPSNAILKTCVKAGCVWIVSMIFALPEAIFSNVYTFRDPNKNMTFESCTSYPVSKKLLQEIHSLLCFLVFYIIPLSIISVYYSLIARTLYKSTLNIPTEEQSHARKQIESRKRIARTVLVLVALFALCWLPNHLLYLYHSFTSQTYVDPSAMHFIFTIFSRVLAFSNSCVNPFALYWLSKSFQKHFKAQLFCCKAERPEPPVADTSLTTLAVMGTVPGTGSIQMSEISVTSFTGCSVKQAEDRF

Substance	EC50 of NFAT-luciferase reporter activation in CHO cells expressing hBRS3 [1] [nM]	EC50 of NFAT-luciferase reporter activation in CHO cells expressing hNMBR [2] [nM]
[D-Phe^6, ß-Ala^11, Phe^13, Nle^14]-Bombesin (6–14) (peptide)	8.8	–
neuromedin B (peptide)	–	0.16
